The values that follow come from publication PMC8902617.

This assay concerns the target filamentous actin (rabbit skeletal muscle actin) (UniProt P68135). Description: high-speed actin cosedimentation. The settings on record: F-actin 0-25 µM; parent: 93.30 ± 3.05.

Regarding “ASAP1 BAR-PH (residues 1-431), His6-tagged, wild type (from UniProt Q9QWY8) K153A; K156A; K159A”, the other: % max (maximal binding, % protein in the pellet) was found to be 88.6%.
